Measured values: patent US20190127432A1

Target: FSH receptor on CHO-FSHR cells (Homo sapiens (Human)) (UniProt P23945)
Assay: cell-based or functional assay

Sequence of UniProt P23945 (P23945 18-695 limits assumed, form in doubt): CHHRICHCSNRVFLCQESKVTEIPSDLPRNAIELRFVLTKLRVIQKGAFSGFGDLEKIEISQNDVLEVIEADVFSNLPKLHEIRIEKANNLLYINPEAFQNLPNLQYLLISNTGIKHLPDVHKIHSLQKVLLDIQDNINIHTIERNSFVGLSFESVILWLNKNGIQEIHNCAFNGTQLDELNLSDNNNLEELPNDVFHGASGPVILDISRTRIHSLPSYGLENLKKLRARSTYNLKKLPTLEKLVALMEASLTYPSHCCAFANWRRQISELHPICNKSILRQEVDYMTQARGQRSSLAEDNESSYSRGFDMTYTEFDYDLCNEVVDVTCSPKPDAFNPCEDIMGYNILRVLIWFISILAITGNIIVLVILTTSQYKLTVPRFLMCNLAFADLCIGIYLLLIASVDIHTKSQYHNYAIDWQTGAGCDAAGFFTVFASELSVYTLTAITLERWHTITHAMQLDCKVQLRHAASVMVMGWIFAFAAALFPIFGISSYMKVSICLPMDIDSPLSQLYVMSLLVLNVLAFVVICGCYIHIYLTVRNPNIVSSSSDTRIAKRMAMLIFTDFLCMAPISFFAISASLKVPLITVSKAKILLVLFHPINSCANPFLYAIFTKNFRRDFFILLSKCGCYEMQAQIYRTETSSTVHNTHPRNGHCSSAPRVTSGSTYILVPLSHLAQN

- EC50 (ng/ml), cAMP stimulation in CHO-FSHR cells: 4.15 ng/mL
- Potency difference, cAMP stimulation in CHO-FSHR cells: 1.3 fold
- Vmax (%), cAMP stimulation in CHO-FSHR cells: 99.3%
- Vmax (pmol/ml), cAMP stimulation in CHO-FSHR cells: 293 pmol/mL
Substance: Elonva (ligand)
